Assay results published in US20110124071A1, “METHODS AND COMPOSITIONS FOR PRODUCING HYDROCARBONS” (priority 2009, published 2011).

T1: Prochlorococcus marinus CCMP1986 PMM0532 (NP-892650; putative decarbonylase)
T1 sequence: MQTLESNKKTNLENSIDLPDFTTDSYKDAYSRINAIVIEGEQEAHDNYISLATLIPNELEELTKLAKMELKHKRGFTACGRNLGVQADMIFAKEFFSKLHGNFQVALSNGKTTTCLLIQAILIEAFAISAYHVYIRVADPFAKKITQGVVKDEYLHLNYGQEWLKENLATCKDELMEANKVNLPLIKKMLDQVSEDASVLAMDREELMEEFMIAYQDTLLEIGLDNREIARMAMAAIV

B1: PMM0533: Prochlorococcus marinus CCMP1986 putative aldehyde-generating enzyme (SEQ ID NO: 72) (protein, listed as Prochlorococcus marinus)
chain: MFGLIGHSTSFEDAKRKASLLGFDHIADGDLDVWCTAPPQLVENVEVKSAIGISIEGSYIDSCFVPEMLSRFKTARRKVLNAMELAQKKGINITALGGFTSIIFENFNLLQHKQIRNTSLEWERFTTGNTHTAWVICRQLEMNAPKIGIDLKSATVAVVGATGDIGSAVCRWLINKTGIGELLLVARQKEPLDSLQKELDGGTIKNLDEALPEADIVVWVASMPKTMEIDANNLKQPCLMIDGGYPKNLDEKFQGNNIHVVKGGIVRFFNDIGWNMMELAEMQNPQREMFACFAEAMILEFEKCHTNFSWGRNNISLEKMEFIGAASVKHGFSAIGLDKHPKVLAV
B2: ATCC51142 cce—1430: Cyanothece sp. ATCC51142 putative aldehyde-generating enzyme, Acyl-ACP reductase (SEQ ID NO: 70) (protein, listed as Cyanothece sp.)
chain: MFGLIGHLTSLEHAHSVADAFGYGPYATQGLDLWCSAPPQFVEHFHVTSITGQTIEGKYIESAFLPEMLIKRRIKAAIRKILNAMAFAQKNNLNITALGGFSSIIFEEFNLKENRQVRNVSLEFDRFTTGNTHTAYIICRQVEQASAKLGIDLSQATVAICGATGDIGSAVCRWLDRKTDTQELFLIARNKERLQRLQDELGRGKIMGLEEALPEADIIVWVASMPKGVEINAETLKKPCLIIDGGYPKNLDTKIKHPDVHILKGGIVEHSLDIDWKIMETVNMDVPSRQMFACFAEAILLEFEQWHTNFSWGRNQITVTKMEQIGEASVKHGLQPLLSW

What was measured:
[1] = test system: T1, Prochlorococcus marinus CCMP1986 PMM0532 (NP-892650; putative decarbonylase)
E. coli MG1655 = test: Heterologous expression of putative aldehyde-generating enzyme alone in E. coli, GC-MS of extracts; format: cell-based; details: enzyme expressed alone in E. coli MG1655, M9 minimal media, 37° C.
Description: The genomic DNA encoding Synechococcus elongatus PCC7942 orf1594 (YP—400611; putative aldehyde-generating enzyme) (SEQ ID NO: 65) was amplified and cloned into the NcoI and EcoRI sites of vector OP-80 (pCL1920 derivative) under the control of the Ptrc promoter. The resulting construct (“OP80-PCC7942—1594”) was transformed into E. coli MG1655 and the cells were grown at 37° C. in M9 minimal media with 1% (w/v) glucose as carbon source and supplemented with 100 μg/ml spectinomycin. When the culture reached OD600 of 0.8-1.0, it was induced with 1 mM IPTG and cells were grown for an additional 18-20 h at 37° C. Cells from 0.5 ml of culture were extracted with 0.5 ml of ethyl acetate. After sonication for 60 min, the sample was centrifuged at 15,000 rpm for 5 min. The solvent layer was analyzed by GC-MS as described in Example 1.
The genomic DNA encoding Cyanothece sp. ATCC51142 cce—1430 (YP—001802846; putative aldehyde-generating enzyme) (SEQ ID NO: 70) was amplified and cloned into the NcoI and EcoRI sites of vector OP-80 (pCL1920 derivative) under the control of the Ptrc promoter. The resulting construct was transformed into E. coli MG1655 and the cells were grown at 37° C. in M9 minimal media with 1% (w/v) glucose as carbon source and supplemented with 100 μg/ml spectinomycin. The cells were cultured and extracted as in Example 3 and analyzed by GC-MS as described in Example 26.
The genomic DNA encoding P. mariunus CCMP1986 PMM0533 (NP_892651; putative aldehyde-generating enzyme) (SEQ ID NO: 72) and Prochlorococcus mariunus CCMP1986 PMM0532 (NP_892650; putative decarbonylase) (SEQ ID NO: 19) were amplified and cloned into the NcoI and EcoRI sites of vector OP-80 and the NdeI and XhoI sites of vector OP-183, respectively. The resulting constructs were separately transformed and cotransformed into E. coli MG1655 and the cells were grown at 37° C. in M9 minimal media supplemented with 100 μg/ml spectinomycin and 100 μg/ml carbenicillin. The cells were cultured and extracted as in Example 3 and analyzed by GC-MS as described in Example 26.

Molecule | fatty alcohol, alkane and alkene production (GC/MS) in E. coli MG1655, PMM0533 alone against PMM0533 coexpressed with PMM0532 [1] | production of fatty aldehydes and fatty alcohols (E. coli MG1655)
Prochlorococcus marinus CCMP1986 PMM0533 (NP-892651; putative aldehyde-generating enzyme) | E. coli cells transformed with only the P. mariunus CCMP1986 PMM0533-bearing vector did not produce any fatty aldehydes or fatty alcohols. However, E. coli cells cotransformed with PMM0533 and PMM0532-bearing vectors produced hexadecanol, pentadecane and heptadecene | 
B1 |  | did not produce any fatty aldehydes or fatty alcohols
B2 |  | generates aldehydes in vivo
